From US20240361320A1

Biological target: SARS-CoV-2 3CL^pro enzyme (Recombinant derived from Escherichia coli, ab277614, ABCAM; SEQ ID NO:2) (SARS-CoV-2) (UniProt P0DTC1)
Experiment: cell-based or functional assay

For “myoglobin antibody (Monoclonal rabbit-derived, ab77232, ABCAM; binding to SEQ ID NO:5)”, the oxidation peak shift (ΔEPeak) of pBQ was 0 mV.
